Measured values from patent US20260049151A1 (SHENGHE CHINA BIOPHARMACEUTICAL, published 2026).
Read-outs that look alike come from different tables or passages of the source.

T1: Human-TNFR2-His (human, UniProt P20333 23-257)
T1 construct: Bought protein; also called human TNFR2 protein; TNFR2 protein; not shown: His tag
T1 sequence (looked up): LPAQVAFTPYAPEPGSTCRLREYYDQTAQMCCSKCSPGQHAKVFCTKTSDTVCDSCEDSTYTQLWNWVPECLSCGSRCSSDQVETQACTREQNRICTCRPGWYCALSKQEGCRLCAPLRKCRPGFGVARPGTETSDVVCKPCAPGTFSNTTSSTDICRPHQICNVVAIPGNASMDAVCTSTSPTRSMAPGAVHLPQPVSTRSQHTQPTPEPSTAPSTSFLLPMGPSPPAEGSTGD

B1: Positive control (anti-4-1BB antibody, human IgG1) (antibody, V domains shown)
VH: QVQLQESGPGLVKPSETLSLTCTVSGSSLTSYGVHWVRQPPGKGLEGLGVIWPGGSTNYNSALMSRVTISKDNSKSQVSLKMSSLTAADTAVYYCARVTGTWYFDVWGQGTTVTVSS
VL: DIQMTQSPSSLSASLGDRVTISCSASQGISNYLNWYQQKPDGTVKLLIYYTSTLHSGVPSRFSGSGSGTDYTLTISSLQPEDIATYYCQQYSKLPWTFGGGTKLEIK
notes: also called control antibody
B2: Positive control 2 (anti-TNFR2 VHH) (VHH)
VHH: EVQLVESGGGLVQPGGSLRLSCAASGSRLDYYAVAWFRQAPGKEREEVSCITYSGGSTNYAESVKGRFTISRDNSKNTLYLQMNSLRAEDTAVYYCTTEPYGSSCPLSGYDTWGQGTLVTVSS

Assays:
[1] = target: T2, Human 4-1BB His (human, UniProt Q07011 24-186); assay: ELISA: Human 4-1BB His coated (0.2 ug/mL), antibody titrated, goat anti-human IgG Fc detection (Example 3)
T2 construct: Bought protein; lots 198-2146F1-W6 and 2407c-214FF1-YC; also called human 4-1BB protein; 4-1BB protein; not shown: His tag
T2 sequence (Q07011 24-186 limits assumed): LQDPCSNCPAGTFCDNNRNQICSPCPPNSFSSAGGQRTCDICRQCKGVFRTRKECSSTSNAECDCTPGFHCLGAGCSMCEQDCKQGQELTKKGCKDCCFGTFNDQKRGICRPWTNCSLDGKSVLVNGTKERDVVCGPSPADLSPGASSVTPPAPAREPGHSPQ
Protocol: (§1) Human 4-1BB His (manufacturer: Acro, CAT: 41B-H5258, LOT: 198-2146F1-W6) was diluted to 0.2 μg/mL with a coating solution (1×PBS, pH7.4), and coated in 96-well ELISA plate at 100 μL/well overnight at 4° C. The coating solution was poured off. Each well was washed with 1×PBST at 300 μL, washed 4 times with a plate washer, and patted dry on a flat paper. It was blocked with 3% skim milk powder at 300 μL/well, and incubated at 37° C. for 1 h. The blocking solution was poured off, washed 4 times with a plate washer, and patted dry on a flat paper. Negative control and positive control were set up. […] The variable region of the antibody sequence of the positive control consists of SEQ ID NO: 15 and SEQ ID NO: 19, with the addition of the constant region of human IgG1 (SEQ ID NO: 46 and SEQ ID NO: 47). The positive control and antibody were diluted to 10 μg/mL with 3% skim milk powder as the starting concentration, and then diluted by 3-fold gradient (11 gradients in total), and a blank well was set up and only the diluent was added. It was incubated at 37° C. for 1 h at 100 μL/well. The liquid in the well was discarded, washed 4 times with a plate washer, and patted dry on a flat paper. Goat anti-human IgG Fc was diluted with 3% skim milk powder at 1:20000, and incubated at 37° C. for 1 h at 100 μL/well. It was washed 6 times with a plate washer, and patted dry on a flat paper. TMB color developing solution was added at 100 μL/well, and wrapped with aluminum foil. Color development was performed at 37° C. in the dark for 8 min. Termination solution 1M HCl was added to terminate the color development reaction at 100 μL/well. Readings were taken at 450 nm on an ELISA reader.

[2] = target: T2, Human 4-1BB His; assay: as above; remark: listed apart in the source
Protocol: as §1

[3] = target: T2, Human 4-1BB His; assay: as above; remark: listed apart in the source
Protocol: as §1

[4] = target: T2, Human 4-1BB His; assay: as above; remark: listed apart in the source
Protocol: as §1, with “It was washed 6 times with a plate washer, and patted dry on a flat paper. TMB color developing solution was added at 100 μL/well, and wrapped with aluminum foil. Color development was performed at 37° C. in the dark for 8 min. Termination solution 1M HCl was added to terminate the color development reaction at 100 μL/well.” left out

[5] = target: T2, Human 4-1BB His; assay: as above; remark: listed apart in the source
Protocol: as §1

[6] = target: T2, Human 4-1BB His; assay: BLI, antibody on AHC sensor, 100 nM 4-1BB His in solution
Description: (§2) The variable region of the antibody sequence of the positive control consists of SEQ ID NO: 15 and SEQ ID NO: 19, with the addition of the constant region of human IgG1 (SEQ ID NO: 46 and SEQ ID NO: 47). The AHC sensor was soaked in 0.02% PBST (0.02% Tween 20, pH 7.4, 1× PBS) as a buffer for 600 s to remove the sucrose covering the sensor surface. The AHC sensor was equilibrated with 0.02% PBST (0.02% Tween 20, pH 7.4, 1× PBS) as a buffer for 60 s, the antibody in the sample plate was solidified for 300 s, and the secondary equilibration buffer was used for 180 s. 100 nM human 4-1BB His (manufacturer: Acro, CAT: 41B-H5258, LOT: 198-2146F1-W6) protein was bound to the antibody for 300 s and then dissociated for 600 s. After dissociation, 10 mM glycine (pH 2.0) was used as a regeneration buffer for 30 s. The sensor was regenerated with 10 mM glycine (pH 2.0).

[7] = target: T2, Human 4-1BB His; assay: ELISA: Human 4-1BB His coated (0.2 ug/mL), antibody titrated, goat anti-human IgG Fc detection (Example 3); remark: listed apart in the source
Protocol: as §1

[8] = target: T1, Human-TNFR2-His; assay: ELISA: Human-TNFR2-His coated (0.1 ug/mL), antibody titrated, goat anti-human IgG Fc detection (Example 2)
Protocol: Human-TNFR2-His (manufacturer: SINO, CAT: 10417-H08H, LOT: LC15NO0412) was diluted to 0.1 μg/mL with a coating solution (1×PBS, pH7.4), and coated in 96-well ELISA plate at 100 µL/well overnight at 4° C. The coating solution was poured off. Each well was washed with 1×PBST at 300 μL, washed 4 times with a plate washer, and patted dry on a flat paper. It was blocked with 3% skim milk powder at 300 μL/well, and incubated at 37° C. for 1 h. The blocking solution was poured off, washed 4 times with a plate washer, and patted dry on a flat paper. Negative control and positive control were set up. […] The positive control and antibody were diluted to 10 μg/mL with 3% skim milk powder as the starting concentration, and then diluted by 3-fold gradient (11 gradients in total), and a blank well was set up and only the diluent was added. It was incubated at 37° C. for 1 h at 100 μL/well. The liquid in the well was discarded, washed 4 times with a plate washer, and patted dry on a flat paper. Goat anti-human IgG Fc was diluted with 3% skim milk powder at 1:10000, and incubated at 37° C. for 1 h at 100 μL/well. It was washed 6 times with a plate washer, and patted dry on a flat paper. TMB color developing solution was added at 100 μL/well, and wrapped with aluminum foil. Color development was performed at 37° C. in the dark for 8 min. […] Readings were taken at 450 nm on an ELISA reader.

[9] = target: T1, Human-TNFR2-His; assay: as above; remark: listed apart in the source
Protocol: (§3) Human-TNFR2-His (manufacturer: SINO, CAT: 10417-H08H, LOT: LC15NO0412) was diluted to 0.1 μg/mL with a coating solution (1×PBS, pH7.4), and coated in 96-well ELISA plate at 100 µL/well overnight at 4° C. The coating solution was poured off. Each well was washed with 1×PBST at 300 μL, washed 4 times with a plate washer, and patted dry on a flat paper. It was blocked with 3% skim milk powder at 300 μL/well, and incubated at 37° C. for 1 h. The blocking solution was poured off, washed 4 times with a plate washer, and patted dry on a flat paper. Negative control and positive control were set up. […] The positive control and antibody were diluted to 10 μg/mL with 3% skim milk powder as the starting concentration, and then diluted by 3-fold gradient (11 gradients in total), and a blank well was set up and only the diluent was added. It was incubated at 37° C. for 1 h at 100 μL/well. The liquid in the well was discarded, washed 4 times with a plate washer, and patted dry on a flat paper. Goat anti-human IgG Fc was diluted with 3% skim milk powder at 1:10000, and incubated at 37° C. for 1 h at 100 μL/well. It was washed 6 times with a plate washer, and patted dry on a flat paper. TMB color developing solution was added at 100 μL/well, and wrapped with aluminum foil. Color development was performed at 37° C. in the dark for 8 min. Termination solution 1M HCl was added to terminate the color development reaction at 100 μL/well. Readings were taken at 450 nm on an ELISA reader.

[10] = target: T1, Human-TNFR2-His; assay: BLI, antibody on AHC sensor, 100 nM TNFR2-His in solution
Protocol: as §2, with “The” for “The variable region of the antibody sequence of the positive control consists of SEQ ID NO: 15 and SEQ ID NO: 19, with the addition of the constant region of human IgG1 (SEQ ID NO: 46 and SEQ ID NO: 47). The”, “1×PBS)” for “1× PBS)”, “human-TNFR2-His” for “human 4-1BB His”, “SINO,” for “Acro,”, “10417-H08H,” for “41B-H5258,”, “LC15NO0412)” for “198-2146F1-W6)”

[11] = target: T1, Human-TNFR2-His; assay: ELISA: Human-TNFR2-His coated (0.1 ug/mL), antibody titrated, goat anti-human IgG Fc detection (Example 2); remark: listed apart in the source
Protocol: as §3

[12] = target: T1, Human-TNFR2-His; assay: as above; remark: listed apart in the source

| Binder | EC50 (read off the curve) [1] [nM] | EC50 (read off the curve) [2] [nM] | EC50 (read off the curve) [3] [nM] | EC50 (read off the curve) [4] [nM] | EC50 (read off the curve) [5] [nM] | Kd [6] [nM] | koff [6] [s⁻¹] | kon [6] [M⁻¹ s⁻¹] | EC50 (read off the curve) [7] [nM] | EC50 (read off the curve) [8] [nM] | EC50 (read off the curve) [9] [nM] | Kd [10] [nM] | koff [10] [s⁻¹] | kon [10] [M⁻¹ s⁻¹] | EC50 (read off the curve) [11] [nM] | EC50 (read off the curve) [12] [nM] |
| --- | --- | --- | --- | --- | --- | --- | --- | --- | --- | --- | --- | --- | --- | --- | --- | --- |
| B1 | ~0.1 | ~0.05 | ~0.05 | ~0.07 | ~0.05 | 14.2 | 0.00553 | 391000 | ~0.05 | – | – | – | – | – | – | – |
| B2 | – | – | – | – | – | – | – | – | – | 0.1 to 0.2 | 0.04 to 0.05 | 1.61 | 0.000427 | 266000 | ~0.04 | ~0.04 |
